From US20260028403A1 (Zymeworks, published 2026) come the findings set out here.

Numbering of substitutions follows the chain as printed. Names and notes keep the numbering of the source.

Assay [1] deals with T1, Recombinant MSLN his tag protein (R&D systems) (UniProt Q13421 296-580, limits assumed).
T1 construct: his tag; also called mesothelin
The assay can be described thus: SPR Biacore T200, MSLN-his on CM5, construct flowed, 1:1 model. Background: SPR reads the build-up and loss of mass on a sensor chip optically.

Assay [2] deals with T2, Recombinant human CD3 epsilon/delta heterodimer, his tag protein (Acro Biosystems) (human, UniProt P07766 23-126; P04234 22-105).
T2 construct: bought
Briefly: SPR Biacore T200, CD3 e/d-his on CM5, construct injected, 1:1 model.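 Also: measured at 25 °C in HEPES-buffered saline with EDTA and Tween 20 at pH 7.4, values are means of three independent runs.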

For assay [3], the target named is T3, Recombinant human/cynomolgus/rhesus macaque CD28 mouse IgG2a Fc fusion protein (Acro Biosystems) (human/cynomolgus/rhesus macaque, UniProt P10747 19-152).
T3 construct: bought; also called huCD28
The assay can be described thus: SPR Biacore T200, CD28-mIgG2a Fc on CM5, construct injected, 1:1 model.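 Also: fc fusion captured by amine coupling, run at 25 °C in HEPES buffer pH 7.4, association 140-500 s then dissociation 600-1200 s, values averaged over three independent runs.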

Assay [4] has as its target T4, CD28 on primary human T cells (human, UniProt P10747 19-220). Briefly: cell-based or functional assay.
The target in assay [5] is T4, CD28 on primary human T cells. The assay can be described thus: cell-based or functional assay. The source holds these as a separate data set.
Assay [6] addresses T3, Recombinant human/cynomolgus/rhesus …. Briefly: SPR, in-format anti-CD28 variants, huCD28.

B1: v34914 (trispecific antibody, human IgG1, lambda, L234A L235A)
heavy 1: not shown
heavy 2: EIVLTQSPATLSLSPGERVTMSCSASSSVSYMHWYQQKPGQAPRLWIYDTSKLASGVPARFSGSGSGTDYTLTISSVEPEDNAVYYCQQWSGHPLTFGQGTKVEIKGGGGSGGGGSGGGGSGGGGSQVQLVQSGAEVKKPGASVKISCKASGYSFTGYTMNWVRQAPGQGLEWIGLITPYSGASSYAQKFQGRATLTVDKSTSTAYMELSSLRSEDTAVYYCARGGYDGRGFDYWGQGTNVTVSSAAEPKSSDKTHTCPPCPAPEAAGGPSVFLFPPKPKDTLMISRTPEVTCVVVSVSHEDPEVKFNWYVDGVEVHNAKTKPREEQYNSTYRVVSVLTVLHQDWLNGKEYKCKVSNKALPAPIEKTISKAKGQPREPQVYVLPPSRDELTKNQVSLLCLVKGFYPSDIAVEWESNGQPENNYLTWPPVLDSDGSFFLYSKLTVDKSRWQQGNVFSCSVMHEALHNHYTQKSLSLSPG
light: NFMLTQPHSVSESPGKTVTISCKRNTGNIGSNYVNWYQQHEGSSPTTIIYRNDKRPDGVSDRFSGSIDRSSKSASLTISNLKTEDEADYFCQSYSSGFIFGGGTKLTVLGQPKAAPSVTLFPPSSEELQANKATLVCLISDFYPGAVTVAWKADSSPVKAGVETTTPSKQSNNKYAASSYLSLTPEQWKSHRSYSCQVTHEGSTVEKTVAPTECS
notes: Het Fc, FcKO; also called CD28xCD3xMSLN trispecific
One may read the Kd as the free concentration of one partner at which half of the binding sites on the other are occupied at equilibrium, for simple one-to-one binding. By koff is commonly meant the first-order rate constant of dissociation. As a reminder, the kon is a measure of how fast the partners come together. On to B1, for which the results for the Kd in assay [1], in assay [2] and in assay [3] were 5.39 nM, 81.1 nM and 122 nM, respectively. Besides, the koff in assay [1] was found to be 0.00197 s⁻¹; in assay [2] it was 0.0191 s⁻¹; in assay [3], 0.00849 s⁻¹. The kon in assay [1] amounted to 374000 M⁻¹ s⁻¹; in assay [2] it was 237000 M⁻¹ s⁻¹; in assay [3] it was 70200 M⁻¹ s⁻¹.

B2: v34919 (bispecific antibody, human IgG1, lambda, L234A L235A)
heavy 1: not shown
heavy 2: B1 heavy 2
light: B1 light
notes: MSLN VL-VH scFv); also called anti-(MSLNxCD3) bispecific control
Take B2: in assay [1], the Kd is 4.16 nM, the koff is 0.00181 s⁻¹ and the kon was 458000 M⁻¹ s⁻¹. In assay [2], the Kd was found to be 50.4 nM, the koff worked out at 0.0131 s⁻¹ and the kon was found to be 267000 M⁻¹ s⁻¹.

B3: v37687 (trispecific antibody, human IgG1, kappa, L234A L235A)
heavy 1: not shown
heavy 2: QVQLVESGGGLVQPGGSLRLSCSVSGIDLSSNPMIWVRQAPGKGLQYIGIIDTDGSTYYADWAKGRFTISKDSTTVYLQINSPRAEDTAVYYCARRLHGSSNGYYDDLWGQGTLVTVSSGGGGSGGGGSGGGGSGGGGSDGQMTQSPSSVSASVGDRVTITCQASQSIYSYLSWYQQKPGQRPKLLIYKASTLASGVPSRFSGSGSGTDFTLTISSVQPEDFATYYCQQGYTVTNVDKNTFGGGTKVEIKAAEPKSSDKTHTCPPCPAPEAAGGPSVFLFPPKPKDTLMISRTPEVTCVVVSVSHEDPEVKFNWYVDGVEVHNAKTKPREEQYNSTYRVVSVLTVLHQDWLNGKEYKCKVSNKALPAPIEKTISKAKGQPREPQVYVLPPSRDELTKNQVSLLCLVKGFYPSDIAVEWESNGQPENNYLTWPPVLDSDGSFFLYSKLTVDKSRWQQGNVFSCSVMHEALHNHYTQKSLSLSPG
light: DIQMTQSPSSLSASVGDRVTITCRASESVEYYVTSLMQWYQQKPGKAPKLLIYAASNVDSGVPSRFSGSGSGTDFTLTISSLQPEDIATYYCQQSRKVPFTFGGGTKVEIKRTVAAPSVFIFPPSDEQLKSGTASVVCLLNNFYPREAKVQWKVDNALQSGNSQESVTEQDSKDSTYSLSSTLTLSKADYEKHKVYACEVTHQGLSSPVTKSFNRGEC
notes: also called v37638 format, CD28 VH E1080K
Regarding B3, in assay [4], the “IC50, T cell-dependent cytotoxicity on SNU 601” value (“IC50 … on SNU 601” below) came to 0.1 pM and the “Maximum Killing (%), SNU 601” value is 88.5%. In addition, in assay [5], the “IL-2 maximum cytokine, T cells alone” value was 170 pg/mL; the “IL-2 maximum cytokine, T cells with SNU 601 cells” value amounted to 4140 pg/mL; the “TNFa maximum cytokine, T cells alone” value turned out to be 21.7 pg/mL; the “TNFa maximum cytokine, T cells with SNU 601 cells” value was determined as 412 pg/mL. Also, in assay [6], the “Fold-change from WT” value was found to be 2.1 fold, the equilibrium dissociation constant (Kd) is 47 nM, the koff was found to be 0.00475 s⁻¹ and the kon is 101000 M⁻¹ s⁻¹.

B4: v34913 (trispecific antibody, human IgG1, kappa, L234A L235A)
heavy 1: not shown
heavy 2: B1 heavy 2
light: B3 light
notes: CD3 scFv on N-terminus of CD28 Fab; MSLN scFv-Fc; Het Fc, FcKO; also called CD3xCD28xMSLN trispecific
Turning to B4, in assay [1], the Kd stood at 6.49 nM, the koff turned out to be 0.00212 s⁻¹ and the kon was found to be 340000 M⁻¹ s⁻¹. In assay [2], the Kd amounted to 41.6 nM, the off-rate (koff) worked out at 0.0112 s⁻¹ and the kon was determined as 270000 M⁻¹ s⁻¹. In addition, in assay [3], the Kd is 45.8 nM, the koff worked out at 0.00216 s⁻¹ and the kon was determined as 47400 M⁻¹ s⁻¹.

B5: v34927 (bispecific antibody, human IgG1, kappa, L234A L235A)
heavy 1: not shown
heavy 2: B1 heavy 2
light: B3 light
notes: MSLN VL-VH scFv); also called anti-(MSLNxCD28) bispecific control
As to B5, in assay [1], the dissociation constant (Kd) is 6.86 nM, the koff amounted to 0.00187 s⁻¹ and the kon is 270000 M⁻¹ s⁻¹. In assay [3], the Kd came out at 50.7 nM, the koff came to 0.00258 s⁻¹ and the kon stood at 50900 M⁻¹ s⁻¹.

B6: v37689 (trispecific antibody, human IgG1, kappa, L234A L235A)
heavy 1: not shown
heavy 2: B3 heavy 2
light: B3 light
notes: also called v37638 format, CD28 VH N1111aA
For the molecule B6, in assay [4], the “IC50 … on SNU 601” value stood at 0.12 pM and the “Maximum Killing (%), SNU 601” value was 93.4%. In assay [5], the “IL-2 maximum cytokine, T cells alone” value turned out to be 677 pg/mL; the “IL-2 maximum cytokine, T cells with SNU 601 cells” value was 3210 pg/mL; the “TNFa maximum cytokine, T cells alone” value came out at 58.9 pg/mL; the “TNFa maximum cytokine, T cells with SNU 601 cells” value amounted to 543 pg/mL. In assay [6], the “Fold-change from WT” value worked out at 10.8 fold, the Kd amounted to 239 nM, the koff was found to be 0.0211 s⁻¹ and the kon amounted to 89600 M⁻¹ s⁻¹.

B7: v37695 (trispecific antibody, human IgG1, kappa, L234A L235A)
heavy 1: not shown
heavy 2: B3 heavy 2
light: B3 light with N57A
notes: also called v37638 format, CD28 VL N1066A
In the case of B7, in assay [4], the “IC50 … on SNU 601” value was 0.04 pM and the “Maximum Killing (%), SNU 601” value came to 89.1%. In assay [5], the “IL-2 maximum cytokine, T cells alone” value is 28.9 pg/mL; the “IL-2 maximum cytokine, T cells with SNU 601 cells” value came out at 3470 pg/mL; the “TNFa maximum cytokine, T cells alone” value is 13 pg/mL; the “TNFa maximum cytokine, T cells with SNU 601 cells” value came to 404 pg/mL. Moreover, in assay [6], the “Fold-change from WT” value came to 1.3 fold, the Kd amounted to 27.7 nM, the dissociation rate constant (koff) is 0.00266 s⁻¹ and the kon is 95100 M⁻¹ s⁻¹.

B8: v37688 (trispecific antibody, human IgG1, kappa, L234A L235A)
heavy 1: not shown
heavy 2: B3 heavy 2
light: B3 light
notes: also called v37638 format, CD28 VH Y1110S
Take B8: in assay [4], the “IC50 … on SNU 601” value came to 0.18 pM and the “Maximum Killing (%), SNU 601” value came to 87.8%. Moreover, in assay [5], the “IL-2 maximum cytokine, T cells alone” value came out at 279 pg/mL; the “IL-2 maximum cytokine, T cells with SNU 601 cells” value came to 3780 pg/mL; the “TNFa maximum cytokine, T cells alone” value is 39.6 pg/mL; the “TNFa maximum cytokine, T cells with SNU 601 cells” value stood at 514 pg/mL. In addition, in assay [6], the “Fold-change from WT” value worked out at 1.2 fold, the Kd came out at 25.8 nM, the koff stood at 0.00253 s⁻¹ and the kon was determined as 97300 M⁻¹ s⁻¹.

B9: v37693 (trispecific antibody, human IgG1, kappa, L234A L235A)
heavy 1: not shown
heavy 2: B3 heavy 2
light: B3 light
notes: also called v37638 format, CD28 VH Y1037A
As for B9, in assay [4], the “IC50 … on SNU 601” value is 0.13 pM and the “Maximum Killing (%), SNU 601” value is 95.3%. Moreover, in assay [5], the “IL-2 maximum cytokine, T cells alone” value amounted to 104 pg/mL; the “IL-2 maximum cytokine, T cells with SNU 601 cells” value stood at 3600 pg/mL; the “TNFa maximum cytokine, T cells alone” value worked out at 19.7 pg/mL; the “TNFa maximum cytokine, T cells with SNU 601 cells” value is 453 pg/mL. In addition, in assay [6], the “Fold-change from WT” value was 4.1 fold, the Kd was found to be 91.8 nM, the koff was 0.00968 s⁻¹ and the kon stood at 106000 M⁻¹ s⁻¹.

B10: v37691 (trispecific antibody, human IgG1, kappa, L234A L235A)
heavy 1: not shown
heavy 2: B3 heavy 2
light: B3 light
notes: also called v37638 format, CD28 VH L1112aN
Turning to B10, in assay [4], the “IC50 … on SNU 601” value is 0.08 pM and the “Maximum Killing (%), SNU 601” value is 91%. Also, in assay [5], the “IL-2 maximum cytokine, T cells alone” value was determined as 185 pg/mL; the “IL-2 maximum cytokine, T cells with SNU 601 cells” value came out at 3360 pg/mL; the “TNFa maximum cytokine, T cells alone” value was found to be 33.6 pg/mL; the “TNFa maximum cytokine, T cells with SNU 601 cells” value was found to be 473 pg/mL. Moreover, in assay [6], the “Fold-change from WT” value is 4.9 fold, the Kd worked out at 109 nM, the koff turned out to be 0.0107 s⁻¹ and the kon came out at 98600 M⁻¹ s⁻¹.

B11: v37692 (trispecific antibody, human IgG1, kappa, L234A L235A)
heavy 1: not shown
heavy 2: B3 heavy 2
light: B3 light
notes: also called v37638 format, CD28 VH Y1113S
As to B11, in assay [4], the “IC50 … on SNU 601” value was 0.63 pM and the “Maximum Killing (%), SNU 601” value was 91.5%. Further, in assay [5], the “IL-2 maximum cytokine, T cells alone” value is 120 pg/mL; the “IL-2 maximum cytokine, T cells with SNU 601 cells” value was found to be 2890 pg/mL; the “TNFa maximum cytokine, T cells alone” value amounted to 20.2 pg/mL; the “TNFa maximum cytokine, T cells with SNU 601 cells” value came to 476 pg/mL. In addition, in assay [6], the “Fold-change from WT” value came to 95.1 fold, the Kd turned out to be 2110 nM, the off-rate (koff) worked out at 0.0613 s⁻¹ and the kon was 32200 M⁻¹ s⁻¹.
